Measured values taken from patent US20100233157A1 (published 2010).

Biological target: T1, Human Fas (CD95) on the cell surface (human, UniProt P25445 26-335)
T1 construct: also called APO-1; TNR6_Human
T1 sequence: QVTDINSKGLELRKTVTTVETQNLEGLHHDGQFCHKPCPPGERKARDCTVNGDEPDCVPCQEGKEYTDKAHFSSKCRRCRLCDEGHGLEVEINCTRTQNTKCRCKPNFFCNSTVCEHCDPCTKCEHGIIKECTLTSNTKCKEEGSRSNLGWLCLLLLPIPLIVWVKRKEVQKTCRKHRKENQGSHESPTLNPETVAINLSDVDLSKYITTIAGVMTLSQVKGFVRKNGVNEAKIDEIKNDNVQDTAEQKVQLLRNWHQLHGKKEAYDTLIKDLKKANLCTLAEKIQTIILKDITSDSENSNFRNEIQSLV
Experiment: flow cytometry on Jurkat cells, FITC anti-human IgG secondary, geometric MFI after background subtraction
Method: Binding of F45D9-γ1 and F45D9-γ4 to the surface of Fas expressing Jurkat and SKW6.4 cells (from ATCC, Jurkat, clone E6-1, ATCC-TIB-152, Human T Leukemia cell line); SKW6.4 cells, ATCC-TIB-215, Human B lymphoblastoid cell line) was explored by immunofluorescence staining and flow cytometry analysis. Cells were cultured in RPMI 1640 medium (GIBCO, Cat. 3105205) supplemented with 2 mM glutamax (GIBCO), 100 UI/mL penicillin, 100 μg/mL streptomycin (Sigma) and 5-10% fetal bovine serum (GIBCO), at 37° C. and 5% CO₂. After washing in PBS Jurkat or SKW6.4 cells (0.2×10⁶ cells/well) were incubated in staining buffer (PBS/1% FBS) containing F45D9-γ1, F45D9-γ4 or human IgG control antibodies (Human IgG1, kappa, Sigma, Cat. I5154 or Human IgG4, kappa, Sigma, Cat. I4639) in a 96-well U-bottom plate for 30 min on ice, in a 100 ul/well volume. Cells were then washed once with staining buffer, and further incubated for 30 min on ice with 1:30 dilution of FITC-conjugated rabbit F(ab′)₂ anti-human IgG (DakoCytomation Cat. F0056). After washing and fixing with 1% formaldehyde in PBS cells were analyzed in a FACScan (Becton Dickinson, Mountain View, Calif.). The reactivity of F45D9-γ1 and F45D9-γ4 to the surface of Jurkat cells was quantified and Geometric Mean Fluorescence Intensity (MFI) after background subtraction (FIG. 1A) and histograms (FIG. 1B) are shown. […]

EC50 (read off the curve): ~0.5 µg/mL
B1: F45D9-γ1 mAb (recombinant human mAb T17/B2-1G4, gamma-1 isotype) (antibody, V domains shown)
VH: QVQLQQWGAGLLKPSETLSLICAVYGGSFSTYYWTWIRQPPGKGLEWIGEINHRGTTNYSPSLKSRVTISVDTSKNHISLNLTSVTAADTALYYCARGLLWIGEGDYGLDVWGQGTTVTVSS
VL: DIQMTQSPSSLSASVGDRVTITCRASQGIRRWLAWYQQKPEKAPKSLIYAASSLQSGVPSRFSGSGSGTDFTLTISSLQPEDFATYYCQQYNSYPYTFGQGTKLEIKR
notes: Whole human IgG1 (γ1fa allotype) with human kappa light chain, made in CHO DG44 cells; also called IgG1; T17/L18/B2-1G4
